Laboratory results: FireProtDB (doi:10.1021/bi051266r)
Several values for one entry are separate records, joined by “and”; a condition that tells them apart may be missing. Equal entries are not always repeated.

Details: Saccharolobus solfataricus (strain ATCC 35092 / DSM 1617 / JCM 11322 / P2), Thermal, DSC, Glycine 10 mM, transition: 3, reversible: yes, whole UniProt chain shown

B1: DNA/RNA-binding protein Alba 2 wild type, Q97ZF4 (protein)
chain: MTEKLNEIVVRKTKNVEDHVLDVIVLFNQGIDEVILKGTGREISKAVDVYNSLKDRLGDGVQLVNVQTGSEVRDRRRISYILLRLKRVY
unfolding enthalpy (calorimetric) (pH 3.2): 20.3 kcal/mol and 42.8 kcal/mol | unfolding enthalpy (van 't Hoff) (pH 3.2): 39.1 kcal/mol and 85.5 kcal/mol | Tm (pH 4.2): 116 °C | unfolding enthalpy (calorimetric) (pH 4.2): 47.8 kcal/mol | unfolding enthalpy (van 't Hoff) (pH 4.2): 93.5 kcal/mol | unfolding enthalpy (calorimetric) (pH 4.8): 37.8 kcal/mol and 47.3 kcal/mol | unfolding enthalpy (van 't Hoff) (pH 4.8): 75.5 kcal/mol and 92.7 kcal/mol | unfolding enthalpy (calorimetric) (pH 5.6): 44.8 kcal/mol and 56.9 kcal/mol | unfolding enthalpy (van 't Hoff) (pH 5.6): 95.5 kcal/mol and 105 kcal/mol | unfolding enthalpy (calorimetric) (pH 7.1): 27 kcal/mol and 44.9 kcal/mol | unfolding enthalpy (van 't Hoff) (pH 7.1): 172 kcal/mol and 84.7 kcal/mol
